Test system: T1, His-CalR (Vibrio parahaemolyticus RIMD2210633), ORF:1a4fc32f
T1 sequence: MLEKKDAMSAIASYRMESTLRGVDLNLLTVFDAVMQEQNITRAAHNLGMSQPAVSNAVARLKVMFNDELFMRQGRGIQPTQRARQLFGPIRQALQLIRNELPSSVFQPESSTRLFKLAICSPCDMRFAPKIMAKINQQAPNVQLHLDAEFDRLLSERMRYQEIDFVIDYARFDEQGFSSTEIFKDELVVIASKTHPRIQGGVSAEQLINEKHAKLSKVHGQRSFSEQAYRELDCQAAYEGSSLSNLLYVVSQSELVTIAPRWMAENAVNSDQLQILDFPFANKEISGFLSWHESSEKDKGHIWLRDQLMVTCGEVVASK
Assay: DNase I footprinting
Conditions: 10 mM Tris-HCl pH 7.5, 50 mM NaCl, 1 mM MgCl2, 0.5 mM EDTA, 0.5 mM DTT, 10 mg/ml salmon sperm DNA (so in the source), room temperature, 20 min (EMSA) or 30 min (ToxR …)

With “CAGGAAACAGCTATGACCGGCTTATATTTATTCTACAGATGGACAGCAATAACGTTCCACGTACAACACGTAATTAACATAGTATTTAATTTTTAAGATAACACAATTCTAATTCTTCATCGCTTGTCGATATAAACCAAAATCCCACCATAATAGAATTTAATAACCGTTAATCTTTATATGCACCAGCACTCATTTGTAAGATTAGAAGCAAGGAGTCAATTCTGGGTTTCCGGCCAAAATATAATAACTAACAACCAAAATTGATAAACACTGGCCGTCGTTTTAC (double strand) [exsB promoter, footprint fragment]” the binding was “binds”.
